Measured values from publication PMC3910374 (Cancer research, 2013).

How the values were obtained:
Test in all cases: SPR
GST-Bcl-2ΔTM S70E = GST-Bcl-2ΔTM S70E (UniProt P10415 1-219, S70E)
[1] = biological target: Bcl-2ΔTM-His6 (unphosphorylated) (UniProt P10415 1-219)
GST-Bcl-2ΔTM (wt) = GST-Bcl-2ΔTM (wt) (UniProt P10415 1-219)
Sequence of GST-Bcl-2ΔTM (wt) (P10415 1-219, stated change not applied): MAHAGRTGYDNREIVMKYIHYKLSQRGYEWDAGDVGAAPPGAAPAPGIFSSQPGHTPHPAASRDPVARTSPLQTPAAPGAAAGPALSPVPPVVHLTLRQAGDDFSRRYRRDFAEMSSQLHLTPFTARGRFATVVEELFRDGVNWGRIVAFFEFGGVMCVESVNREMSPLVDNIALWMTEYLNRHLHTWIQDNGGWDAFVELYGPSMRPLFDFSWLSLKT

Sequence of Bcl-2ΔTM-His6 (unphosphorylated) (P10415 1-219, stated change not applied): as above
Sequence of GST-Bcl-2ΔTM S70E (P10415 1-219 S70E): as the sequence (P10415 1-219, stated change not applied) above, with S70E counted along it

B1: His6-tagged BakΔTM (domain or fragment, UniProt Q16611 1-186, looked up)
chain: MASGQGPGPPRQECGEPALPSASEEQVAQDTEEVFRSYVFYRHQQEQEAEGVAAPADPEMVTLPLQPSSTMGQVGRQLAIIGDDINRRYDSEFQTMLQHLQPTAENAYEYFTKIATSLFESGINWGRVVALLGFGYRLALHVYQHGLTGFLGQVTRFVVDFMLHHCIARWIAQRGGWVAALNLGNG
- binding result (GST-Bcl-2ΔTM S70E): binds
- Kd [1]: ~150 nM

Binder: RPEIWIAQELRRIGDEFNAYYARRVF [26-mer Bim BH3 peptide]
- Kd (GST-Bcl-2ΔTM (wt)): 7 nM
